Measured values reported in patent US20220002403A1 (Merck Sharp & Dohme, published 2022).

Tests used:
[1] = molecular target: T1, human ILT4 expressed on CHO cells (CHO/ILT4 cell line) (human, UniProt Q8N423 22-597); experiment: cell-based ligand blocking assay: CHO/ILT4 cells pre-incubated with antibody (1-20,000 ng/mL), then biotinylated HLA-G/Fc
T1 construct: also called CHO/ILT4+ cells; CHO-expressed ILT4

[2] = molecular target: T2, recombinant human ILT4 antigen chemically coupled to Luminex beads (ILT4/Fc) (human, UniProt Q8N423 22-460); experiment: Luminex ligand blocking assay: bead-coupled ILT4 pre-incubated with antibody (0.5-9,000 ng/mL), then 50 nM biotinylated HLA-G/Fc
T2 construct: also called Luminex bead-coupled ILT4/Fc; not shown: Fc part
T2 sequence (Q8N423 other isoform, or with tags, fused parts or gaps): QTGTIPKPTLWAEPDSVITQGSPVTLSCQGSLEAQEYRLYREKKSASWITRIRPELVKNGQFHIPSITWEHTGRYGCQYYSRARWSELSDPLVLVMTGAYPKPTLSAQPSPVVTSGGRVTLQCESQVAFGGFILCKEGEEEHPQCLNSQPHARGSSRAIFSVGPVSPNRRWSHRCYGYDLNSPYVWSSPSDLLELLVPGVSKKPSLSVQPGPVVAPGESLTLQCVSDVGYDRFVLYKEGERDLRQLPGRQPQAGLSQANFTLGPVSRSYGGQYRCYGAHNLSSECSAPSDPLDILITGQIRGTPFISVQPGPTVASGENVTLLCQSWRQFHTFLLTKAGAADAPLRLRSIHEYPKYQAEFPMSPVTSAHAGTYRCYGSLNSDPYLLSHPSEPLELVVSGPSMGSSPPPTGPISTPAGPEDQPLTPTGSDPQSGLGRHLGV

[3] = molecular target: T3, human LILRA2 expressed on mouse 3A9 T cells (human, UniProt Q8N149 24-483); experiment: flow cytometry on 3A9 T cell transfectants
T3 construct: whole, on cells
T3 sequence (Q8N149 24-483): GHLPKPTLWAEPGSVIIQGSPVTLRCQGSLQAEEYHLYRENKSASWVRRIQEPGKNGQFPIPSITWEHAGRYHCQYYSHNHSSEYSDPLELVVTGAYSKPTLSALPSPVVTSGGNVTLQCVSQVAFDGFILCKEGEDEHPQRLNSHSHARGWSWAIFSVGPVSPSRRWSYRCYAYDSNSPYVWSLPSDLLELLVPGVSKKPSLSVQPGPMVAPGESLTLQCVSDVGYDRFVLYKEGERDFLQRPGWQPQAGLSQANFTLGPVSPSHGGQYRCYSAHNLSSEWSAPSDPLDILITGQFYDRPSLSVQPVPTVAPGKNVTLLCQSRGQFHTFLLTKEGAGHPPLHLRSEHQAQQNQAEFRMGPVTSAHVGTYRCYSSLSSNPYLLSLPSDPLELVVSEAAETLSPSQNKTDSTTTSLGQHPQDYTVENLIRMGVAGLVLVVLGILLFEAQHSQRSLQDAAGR

[4] = molecular target: T4, human LILRA1 expressed on mouse 3A9 T cells (human, UniProt O75019 17-489); experiment: flow cytometry on 3A9 T cell transfectants
T4 construct: whole, on cells
T4 sequence (O75019 17-489): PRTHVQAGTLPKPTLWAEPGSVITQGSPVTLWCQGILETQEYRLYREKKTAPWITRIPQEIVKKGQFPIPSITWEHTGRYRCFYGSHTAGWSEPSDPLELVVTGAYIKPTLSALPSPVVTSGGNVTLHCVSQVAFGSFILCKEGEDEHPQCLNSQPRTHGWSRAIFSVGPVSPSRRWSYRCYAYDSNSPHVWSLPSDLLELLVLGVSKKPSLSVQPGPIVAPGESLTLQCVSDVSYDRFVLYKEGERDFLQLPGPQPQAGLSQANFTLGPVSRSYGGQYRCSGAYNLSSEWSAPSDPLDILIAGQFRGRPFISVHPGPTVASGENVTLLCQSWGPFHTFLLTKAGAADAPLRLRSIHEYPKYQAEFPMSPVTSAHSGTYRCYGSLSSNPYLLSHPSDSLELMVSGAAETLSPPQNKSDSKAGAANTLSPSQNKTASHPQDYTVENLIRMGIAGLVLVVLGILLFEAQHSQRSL

[5] = molecular target: T5, human ILT7 expressed on mouse 3A9 T cells (human, UniProt P59901 24-499); experiment: flow cytometry on 3A9 T cell transfectants
T5 construct: whole, on cells
T5 sequence (P59901 24-499): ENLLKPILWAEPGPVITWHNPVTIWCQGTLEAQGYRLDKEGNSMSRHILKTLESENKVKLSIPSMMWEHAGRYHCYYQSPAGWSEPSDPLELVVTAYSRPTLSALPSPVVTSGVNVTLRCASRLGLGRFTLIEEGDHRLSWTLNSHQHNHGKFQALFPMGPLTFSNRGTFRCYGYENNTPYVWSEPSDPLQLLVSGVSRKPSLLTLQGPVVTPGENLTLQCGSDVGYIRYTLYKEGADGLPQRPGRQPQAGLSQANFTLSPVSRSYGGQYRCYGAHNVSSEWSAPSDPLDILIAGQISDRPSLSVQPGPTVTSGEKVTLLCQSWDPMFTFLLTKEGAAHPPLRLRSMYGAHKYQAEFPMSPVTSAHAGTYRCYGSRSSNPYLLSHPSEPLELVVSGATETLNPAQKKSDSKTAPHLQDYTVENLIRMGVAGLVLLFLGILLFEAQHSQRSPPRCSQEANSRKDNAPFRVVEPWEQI

[6] = molecular target: T6, human ILT11 expressed on mouse 3A9 T cells (human, UniProt A6NI73 42-299); experiment: flow cytometry on 3A9 T cell transfectants
T6 construct: whole, on cells
T6 sequence (A6NI73 42-299): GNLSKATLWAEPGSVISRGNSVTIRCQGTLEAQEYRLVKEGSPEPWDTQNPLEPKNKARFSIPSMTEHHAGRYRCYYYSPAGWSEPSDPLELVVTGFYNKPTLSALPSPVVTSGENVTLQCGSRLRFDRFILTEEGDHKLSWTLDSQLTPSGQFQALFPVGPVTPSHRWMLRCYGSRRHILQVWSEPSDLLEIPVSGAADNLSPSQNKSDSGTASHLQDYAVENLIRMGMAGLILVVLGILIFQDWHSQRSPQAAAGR

[7] = molecular target: T7, human ILT8 expressed on mouse 3A9 T cells (human, UniProt Q6PI73 24-481); experiment: flow cytometry on 3A9 T cell transfectants
T7 construct: whole, on cells
T7 sequence (Q6PI73 24-481): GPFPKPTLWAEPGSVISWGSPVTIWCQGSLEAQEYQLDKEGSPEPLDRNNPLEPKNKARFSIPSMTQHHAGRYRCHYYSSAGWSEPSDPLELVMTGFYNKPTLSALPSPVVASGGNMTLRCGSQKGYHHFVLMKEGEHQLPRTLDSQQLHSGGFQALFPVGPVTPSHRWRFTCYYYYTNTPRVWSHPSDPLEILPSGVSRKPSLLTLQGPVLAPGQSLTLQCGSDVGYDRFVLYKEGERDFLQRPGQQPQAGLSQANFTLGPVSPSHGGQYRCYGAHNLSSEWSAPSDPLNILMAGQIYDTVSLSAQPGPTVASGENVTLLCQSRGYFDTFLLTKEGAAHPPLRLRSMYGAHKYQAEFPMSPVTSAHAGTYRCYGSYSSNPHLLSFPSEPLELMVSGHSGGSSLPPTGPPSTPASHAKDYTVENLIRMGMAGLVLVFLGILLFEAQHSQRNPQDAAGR

[8] = molecular target: T8, human ILT5 expressed on mouse 3A9 T cells (human, UniProt O75022 24-631); experiment: flow cytometry on 3A9 T cell transfectants
T8 construct: whole, on cells

[9] = molecular target: T9, human ILT2 expressed on mouse 3A9 T cells (human, UniProt Q8NHL6 24-650); experiment: flow cytometry on 3A9 T cell transfectants
T9 construct: whole, on cells
T9 sequence (Q8NHL6 24-650): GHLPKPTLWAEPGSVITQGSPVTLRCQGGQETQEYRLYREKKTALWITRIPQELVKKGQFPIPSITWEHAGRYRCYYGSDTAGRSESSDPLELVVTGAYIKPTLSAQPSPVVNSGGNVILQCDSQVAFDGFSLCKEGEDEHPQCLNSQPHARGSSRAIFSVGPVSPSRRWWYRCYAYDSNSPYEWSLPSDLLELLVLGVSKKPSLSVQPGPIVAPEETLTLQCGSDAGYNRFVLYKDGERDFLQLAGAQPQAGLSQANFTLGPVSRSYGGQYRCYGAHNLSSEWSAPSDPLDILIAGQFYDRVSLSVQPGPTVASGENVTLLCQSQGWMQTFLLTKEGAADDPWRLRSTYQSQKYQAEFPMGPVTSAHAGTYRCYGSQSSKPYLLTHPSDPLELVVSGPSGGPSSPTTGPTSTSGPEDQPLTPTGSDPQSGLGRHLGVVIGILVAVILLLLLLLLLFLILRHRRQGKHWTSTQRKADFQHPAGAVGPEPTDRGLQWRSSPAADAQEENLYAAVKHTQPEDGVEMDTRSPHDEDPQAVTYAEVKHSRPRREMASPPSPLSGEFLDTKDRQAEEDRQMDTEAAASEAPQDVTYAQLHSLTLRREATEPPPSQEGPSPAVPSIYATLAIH

[10] = molecular target: T10, human LILRB5 expressed on mouse 3A9 T cells (human, UniProt O75023 24-590); experiment: flow cytometry on 3A9 T cell transfectants
T10 construct: whole, on cells
T10 sequence (O75023 24-590): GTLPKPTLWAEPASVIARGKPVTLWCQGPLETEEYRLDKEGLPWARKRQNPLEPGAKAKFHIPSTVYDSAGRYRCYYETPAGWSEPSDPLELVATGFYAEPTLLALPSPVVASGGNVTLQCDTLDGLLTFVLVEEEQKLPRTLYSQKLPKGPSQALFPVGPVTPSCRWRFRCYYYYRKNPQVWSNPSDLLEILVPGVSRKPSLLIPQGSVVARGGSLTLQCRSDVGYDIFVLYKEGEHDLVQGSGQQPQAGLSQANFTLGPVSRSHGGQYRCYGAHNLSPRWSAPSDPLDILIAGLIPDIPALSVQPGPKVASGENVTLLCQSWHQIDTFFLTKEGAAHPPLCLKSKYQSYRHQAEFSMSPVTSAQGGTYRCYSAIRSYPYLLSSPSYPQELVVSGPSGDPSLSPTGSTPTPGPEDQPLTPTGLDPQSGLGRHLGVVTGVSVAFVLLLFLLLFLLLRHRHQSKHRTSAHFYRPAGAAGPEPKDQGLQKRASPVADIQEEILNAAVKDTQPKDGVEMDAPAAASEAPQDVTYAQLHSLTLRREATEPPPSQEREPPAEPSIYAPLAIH

[11] = molecular target: T11, ILT4-His (recombinant extracellular domain of human ILT4 fused to a poly-Histidine tag) (human, UniProt Q8N423 22-460); experiment: SPR (Biacore T200): mAb captured by human Fc capture on CM5 chip, ILT4-His titrated; 1:1 model; n=2
T11 construct: also called polyhistidine-tagged human ILT4; recombinant histidine tagged, extracellular domain of ILT4; not shown: poly-histidine tag

[12] = molecular target: T11, ILT4-His (recombinant extracellular …); experiment: SPR; ratio of KD to that of 1E1(G4) (the reference itself)
[13] = molecular target: T12, human ILT3 (two variants) expressed on mouse 3A9 T cells (human, UniProt Q8NHJ6 22-448); experiment: flow cytometry on 3A9 T cell transfectants (two ILT3 variants)
T12 construct: whole, on cells; Two variants were tested

T1 sequence (Q8N423 other isoform, or with tags, fused parts or gaps): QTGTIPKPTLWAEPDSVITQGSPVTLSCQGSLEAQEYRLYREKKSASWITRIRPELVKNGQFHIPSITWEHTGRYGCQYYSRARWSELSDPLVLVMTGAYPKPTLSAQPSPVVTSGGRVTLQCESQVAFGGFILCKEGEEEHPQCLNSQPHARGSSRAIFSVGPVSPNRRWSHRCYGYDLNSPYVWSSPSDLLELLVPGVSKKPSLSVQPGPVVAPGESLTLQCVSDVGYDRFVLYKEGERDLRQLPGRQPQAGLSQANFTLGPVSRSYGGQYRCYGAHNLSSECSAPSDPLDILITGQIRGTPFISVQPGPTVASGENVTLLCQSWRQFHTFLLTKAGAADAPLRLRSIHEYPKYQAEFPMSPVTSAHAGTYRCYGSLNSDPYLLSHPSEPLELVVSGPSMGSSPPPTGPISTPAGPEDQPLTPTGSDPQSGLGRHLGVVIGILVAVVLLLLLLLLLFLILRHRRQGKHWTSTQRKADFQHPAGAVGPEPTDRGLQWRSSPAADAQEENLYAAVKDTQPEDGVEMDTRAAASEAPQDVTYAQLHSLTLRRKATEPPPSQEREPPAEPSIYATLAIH

B1: 1E1 (hIgG4 variant) (antibody)
heavy: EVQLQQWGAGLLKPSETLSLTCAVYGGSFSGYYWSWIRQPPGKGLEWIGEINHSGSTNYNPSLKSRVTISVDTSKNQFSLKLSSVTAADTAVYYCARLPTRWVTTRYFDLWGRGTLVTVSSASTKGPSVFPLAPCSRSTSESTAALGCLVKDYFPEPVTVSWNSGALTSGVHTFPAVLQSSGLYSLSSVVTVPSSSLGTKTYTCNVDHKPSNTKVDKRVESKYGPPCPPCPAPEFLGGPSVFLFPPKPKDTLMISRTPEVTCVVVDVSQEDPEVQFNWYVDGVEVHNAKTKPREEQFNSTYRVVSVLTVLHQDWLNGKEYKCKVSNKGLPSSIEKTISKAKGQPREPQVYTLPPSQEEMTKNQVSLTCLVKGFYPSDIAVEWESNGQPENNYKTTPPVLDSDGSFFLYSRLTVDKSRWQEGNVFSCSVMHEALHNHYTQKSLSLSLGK
light: ESVLTQPPSVSGAPGQRVTISCTGSSSNIGAGYDVHWYQQLPGTAPKLLIYGNSNRPSGVPDRFSVSKSGASASLAITGLQAEDEADYYCQSFDNSLSAYVFGGGTQLTVLGQPKAAPSVTLFPPSSEELQANKATLVCLISDFYPGAVTVAWKADSSPVKAGVETTTPSKQSNNKYAASSYLSLTPEQWKSHRSYSCQVTHEGSTVEKTVAPTECS
notes: The chain assignment is uncertain
In the case of B1, the IC50 [1] is reported as 0.0984 µg/mL and the IC50 [2] is reported as 0.0192 µg/mL.

B2: 3G7 (antibody, V domains shown)
VH: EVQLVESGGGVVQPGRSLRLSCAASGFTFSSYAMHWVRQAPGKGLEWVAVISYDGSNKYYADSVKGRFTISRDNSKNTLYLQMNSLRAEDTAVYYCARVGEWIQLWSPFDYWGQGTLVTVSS
VL: DIQMTQSPSSVSASVGDRVTITCRASQGISSWLAWYQQKPGKAPKFLIYAASSLQSGVPSKFSGSGSGTDFTLTISSLQPEDFATYYCQQYNSYPPTFGGGTKVEIKR
notes: hIgG4 variant in the Luminex and cell assays; also called 3G7 (hIgG4 variant)
Work on B2 yielded an IC50 [1] of 0.374 µg/mL and an IC50 [2] of 0.04 µg/mL.

B3: 2A6 (antibody, V domains shown)
VH: EVQLVQSGAEVKKPGSSVKVSCKASGGTFSSYAISWVRQAPGQGLEWMGGIIPIFGTANYAQKFQGRVTITADESTSTAYMELSSLRSEDTAVYYCARYFDSSGWYKGGAFDIWGQGTMVTVSS
VL: QSVLTQPSSLSASPGASASLTCTLRSGINVDTYRIHWYQQKPGSPPQYLLRYKSDSDKHQGSGVPSRFSGSKDPSANAGILLISGLQSEDEADYYCAIWYSSTWVFGGGTQLTVLG
notes: hIgG4 variant in the Luminex and cell assays; also called 2A6 (hIgG4 variant)
Work on B3 yielded an IC50 [1] of 0.233 µg/mL and an IC50 [2] of 0.0177 µg/mL.

B4: 2C1 (antibody, V domains shown)
VH: EVQLVQSGAEVKKPGASVKVSCKVSGYTLTELSMHWVRQAPGKGLEWMGGFDPEDGETIYAQKFQGRVTMTEDTSTDTAYMELSSLRSEDTAVYYCARAGPLYTIFGVVIIPDNWFDPWGQGTLVTVSS
VL: ESVLTQPPSVSGAPGQRVTISCTGSSSNIGAGYDVHWYQQLPGTAPKLLIYGNSNRPSGVPDRFSGSKSGTSASLAITGLQAEDEADYYCQSYDSSLSGSGVVFGGGTQLIILG
notes: hIgG4 variant in the Luminex and cell assays; also called 2C1 (hIgG4 variant)
B4 showed an IC50 [1] of 0.0561 µg/mL and an IC50 [2] of 0.0102 µg/mL.

B5: 1E1(G4) (antibody, human IgG4 S228P, lambda, V domains shown)
VH: EVQLQQWGAGLLKPSETLSLTCAVYGGSFSGYYWSWIRQPPGKGLEWIGEINHAGSTNYNPSLKSRVTISVDTSKNQFSLKLSSVTAADTAVYYCARLPTRWVTTRYFDLWGRGTLVTVSS
VL: ESVLTQPPSVSGAPGQRVTISCTGSSSNIGAGYDVHWYQQLPGTAPKLLIYGDSNRPSGVPDRFSVSKSGASASLAITGLQAEDEADYYCQSFDNSLSAYVFGGGTQLTVLG
notes: also called 1E1 VH Q1E, S54A/VL Q1E, N53D IgG4 S228P/Lambda
B5: no binding (tested: 10 ug/mL) [3]; no binding (tested: 10 ug/mL) [4]; no binding (tested: 10 ug/mL) [5]. B5: no binding (tested: 10 ug/mL) [6]; no binding (tested: 10 ug/mL) [7]; no binding (tested: 10 ug/mL) [8]. The binding result [9] was “no binding (tested: 10 ug/mL)”, the binding result [10] was “no binding (tested: 10 ug/mL)” and the Kd [11] was 17 nM. The koff [11] was 0.009 s⁻¹, the “KD Ratio” value [12] was 1 and the binding result [13] was “no binding (tested: 10 ug/mL)”.
